Test [1] deals with phosphorylated HemRFL (full-length HemR) (Leptospira biflexa). The test is described as follows: SEC.
The target of test [2] is phosphorylated HemRREC (phospho-receiver domain of HemR) (Leptospira biflexa). Put plainly: SEC.

What is called stoichiometry N is a count of units in the complex or per binding partner.

Turning to “phosphorylated HemRFL (full-length HemR) (natural protein)”, the stoichiometry N in test [1] was found to be 2.
Consider “phosphorylated HemRREC (phospho-receiver domain of HemR) (domain or fragment)”, for which the stoichiometry N in test [2] was determined as 2.
